Laboratory results published in patent US20250215104A1.

What was measured:
[1] = molecular target: T1, human suPAR (hsuPAR) recombinant protein (human), Q03405; experiment: BLI (Octet Red96E), hsuPAR 2 µg/mL on streptavidin sensor, vitronectin as analyte
[2] = molecular target: T1, human suPAR (hsuPAR) recombinant …; experiment: BLI, with WAb0014 against without; details: remark: other sources report otherwise
[3] = molecular target: T1, human suPAR (hsuPAR) recombinant …; experiment: BLI (Octet Red96E), WAb0014 on AHC sensor, hsuPAR captured, vitronectin as analyte (in the presence of WAb0014)

T1 sequence (Q03405 23-303): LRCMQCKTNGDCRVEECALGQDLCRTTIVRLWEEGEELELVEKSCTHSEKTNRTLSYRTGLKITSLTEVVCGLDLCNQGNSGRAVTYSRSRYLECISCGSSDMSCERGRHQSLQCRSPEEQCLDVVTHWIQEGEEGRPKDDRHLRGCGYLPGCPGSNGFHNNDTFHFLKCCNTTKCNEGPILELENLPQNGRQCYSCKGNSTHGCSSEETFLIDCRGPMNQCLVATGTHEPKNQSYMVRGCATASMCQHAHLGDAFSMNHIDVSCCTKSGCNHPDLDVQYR

B1: vitronectin, P04004 20-478 (ligand)
chain: DQESCKGRCTEGFNVDKKCQCDELCSYYQSCCTDYTAECKPQVTRGDVFTMPEDEYTVYDDGEEKNNATVHEQVGGPSLTSDLQAQSKGNPEQTPVLKPEEEAPAPEVGASKPEGIDSRPETLHPGRPQPPAEEELCSGKPFDAFTDLKNGSLFAFRGQYCYELDEKAVRPGYPKLIRDVWGIEGPIDAAFTRINCQGKTYLFKGSQYWRFEDGVLDPDYPRNISDGFDGIPDNVDAALALPAHSYSGRERVYFFKGKQYWEYQFQHQPSQEECEGSSLSAVFEHFAMMQRDSWEDIFELLFWGRTSAGTRQPQFISRDWHGVPGQVDAAMAGRIYISGMAPRPSLAKKQRFRHRNRKGYRSQRGHSRGRNQNSRRPSRATWLSLFSSEESNLGANNYDDYRMDWLVPATCEPIQSVFFFSGDKYYRVNLRTRRVDTVDPPYPRSIAQYWLGCPAPGHL
- Kd [1]: 13.5 nM
- fold reduction in affinity in the presence of WAb0014 [2]: 5 fold
- Kd [3]: 62.2 nM
